The values below come from US20230295301A1 (SHANGHAI JUNSHI BIOSCIENCES, published 2023).

To fix the notation:
B1: HuJS007-74 (antibody, V domains shown)
VH: QVQLQESGPGLVKPSQTLSLTCAVSGYSISSGYYWNWIRQPPGKGLEWIGYIGYDGSNYYNPSLKSRVTMSVDTSKNQFSLKLSSVTAVDTAVYYCARNYYSGYFDSWGQGTTVTVSS
VL: DIQMTQSPSSLSASVGDRVTITCRASQNVGTYVAWYQQKPGKVPKPLIYSTSYRYSGVPSRFSGSGSGTDFTLTISSLQPEDVATYFCHQYDTYPLTFGAGTKLELK
notes: 1A5 VH5 + 4B7VL2; constant regions not specified
B2: HuJS007-103 (antibody, V domains shown)
VH: QVQLQESGPGLVKPSQTLSLTCAVSGYSITSGYYWNWIRQPPGKGLEWIGYIGYDGSNNYNPSLKNRVTMSVDTSKNQFSLKLSSVTAVDTAVYYCARDYYSGYFDSWGQGTTVTVSS
VL: DIQMTQSPSFLSASVGDRVTITCRASQNVGTYVAWYQQKPGKAPKPLIYSTSYRYSGVPSRFSGSGSGTEFTLTISSLQPEDFATYFCHQYDTYPLTFGAGTKLELK
notes: 4B7 VH2-5 + 4B7VL4; constant regions not specified
B3: HuJS007-101 (antibody, V domains shown)
VH: QVQLQESGPGLVKPSQTLSLTCAVSGYSITSGYYWNWIRQPPGKGLEWIGYIGYDGSNNYNPSLKNRVTMSVDTSKNQFSLKLSSVTAVDTAVYYCARDYYSGYFDSWGQGTTVTVSS
VL: DIQMTQSPSSLSASVGDRVTITCRASQNVGTYVAWYQQKPGKVPKPLIYSTSYRYSGVPSRFSGSGSGTDFTLTISSLQPEDVATYFCHQYDTYPLTFGAGTKLELK
notes: 4B7 VH2-5 + 4B7VL2; constant regions not specified
B4: HuJS007-54 (antibody, V domains shown)
VH: QVQLQESGPGLVKPSQTLSLTCTVSAYSITSGYYWNWIRQHPGKGLEWIGYIGYDGSNNYNPSLKSRVTISRDTSKNQFSLKLSSVTAADTAVYYCARDYYSGYFDSWGQGTTLTVSS
VL: EIVMTQSPATLSVSPGERATLSCKASQNVGTYVAWYQQKPGQAPRPLIYSTSYRYSGIPARFSGSGSGTEFTLTISSLQSEDFAVYFCHQYDTYPLTFGQGTKLEIK
notes: 4B7 VH2-2 + 4B7VL9; constant regions not specified
B5: HuJS007-104 (antibody, V domains shown)
VH: QVQLQESGPGLVKPSQTLSLTCAVSGYSITSGYYWNWIRQPPGKGLEWIGYIGYDGSNNYNPSLKNRVTMSVDTSKNQFSLKLSSVTAVDTAVYYCARDYYSGYFDSWGQGTTVTVSS
VL: DIQMTQSPSSLSASVGDRVTITCQASQNVGTYVAWYQQKPGKAPKPLIYSTSYRYSGVPSRFSGSGSGTDFTFTISSLQPEDIATYFCHQYDTYPLTFGAGTKLELK
notes: 4B7 VH2-5 + 4B7VL5; constant regions not specified
B6: HuJS007-76 (antibody, V domains shown)
VH: QVQLQESGPGLVKPSQTLSLTCAVSGYSISSGYYWNWIRQPPGKGLEWIGYIGYDGSNYYNPSLKSRVTMSVDTSKNQFSLKLSSVTAVDTAVYYCARNYYSGYFDSWGQGTTVTVSS
VL: DIQMTQSPSFLSASVGDRVTITCRASQNVGTYVAWYQQKPGKAPKPLIYSTSYRYSGVPSRFSGSGSGTEFTLTISSLQPEDFATYFCHQYDTYPLTFGAGTKLELK
notes: 1A5 VH5 + 4B7VL4; constant regions not specified
B7: HuJS007-77 (antibody, V domains shown)
VH: QVQLQESGPGLVKPSQTLSLTCAVSGYSISSGYYWNWIRQPPGKGLEWIGYIGYDGSNYYNPSLKSRVTMSVDTSKNQFSLKLSSVTAVDTAVYYCARNYYSGYFDSWGQGTTVTVSS
VL: DIQMTQSPSSLSASVGDRVTITCQASQNVGTYVAWYQQKPGKAPKPLIYSTSYRYSGVPSRFSGSGSGTDFTFTISSLQPEDIATYFCHQYDTYPLTFGAGTKLELK
notes: 1A5 VH5 + 4B7VL5; constant regions not specified
B8: HuJS007-102 (antibody, V domains shown)
VH: QVQLQESGPGLVKPSQTLSLTCAVSGYSITSGYYWNWIRQPPGKGLEWIGYIGYDGSNNYNPSLKNRVTMSVDTSKNQFSLKLSSVTAVDTAVYYCARDYYSGYFDSWGQGTTVTVSS
VL: DIQMTQSPSSLSASVGDRVTITCRASQNVGTYVAWYQQKPGKAPKPLIYSTSYRYSGVPSRFSGSGSGTDFTLTISSLQPEDFATYFCHQYDTYPLTFGAGTKLELK
notes: 4B7 VH2-5 + 4B7VL3; constant regions not specified
B9: HuJS007-61 (antibody, V domains shown)
VH: QVQLQESGPGLVKPSETLSLTCTVSGYSITSGYYWNWIRQPPGKGLEWIGYIGYDGSNNYNPSLKSRVTISRDTSKNQFSLKLSSVTAADTAVYYCARDYYSGYFDSWGQGTTLTVSS
VL: EIVMTQSPATLSVSPGERATLSCRASQNVGTYVAWYQQKPGQAPRPLIYSTSYRYSGIPARFSGSGSGTEFTLTISSLQSEDFAVYYCHQYDTYPLTFGQGTKLEIK
notes: 4B7 VH2-3 + 4B7VL7; constant regions not specified
B10: HuJS007-70 (antibody, V domains shown)
VH: QVQLQESGPGLVKPSQTLSLTCAVSAYSITSGYYWNWIRQHPGKGLEWIGYIGYDGSNNYNPSLKSRVTISRDTSKNQFSLKLSSVTAADTAVYYCARDYYSGYFDSWGQGTTLTVSS
VL: EIVMTQSPATLSVSPGERATLSCRASQNVGTYVAWYQQKPGQAPRPLIYSTSYRYSGIPARFSGSGSGTEFTLTISSLQSEDFAVYYCHQYDTYPLTFGQGTKLEIK
notes: 4B7 VH2-4 + 4B7VL7; constant regions not specified
B11: HuJS007-75 (antibody, V domains shown)
VH: QVQLQESGPGLVKPSQTLSLTCAVSGYSISSGYYWNWIRQPPGKGLEWIGYIGYDGSNYYNPSLKSRVTMSVDTSKNQFSLKLSSVTAVDTAVYYCARNYYSGYFDSWGQGTTVTVSS
VL: DIQMTQSPSSLSASVGDRVTITCRASQNVGTYVAWYQQKPGKAPKPLIYSTSYRYSGVPSRFSGSGSGTDFTLTISSLQPEDFATYFCHQYDTYPLTFGAGTKLELK
notes: 1A5 VH5 + 4B7VL3; constant regions not specified
B12: HuJS007-63 (antibody, V domains shown)
VH: QVQLQESGPGLVKPSETLSLTCTVSGYSITSGYYWNWIRQPPGKGLEWIGYIGYDGSNNYNPSLKSRVTISRDTSKNQFSLKLSSVTAADTAVYYCARDYYSGYFDSWGQGTTLTVSS
VL: EIVMTQSPATLSVSPGERATLSCKASQNVGTYVAWYQQKPGQAPRPLIYSTSYRYSGIPARFSGSGSGTEFTLTISSLQSEDFAVYFCHQYDTYPLTFGQGTKLEIK
notes: 4B7 VH2-3 + 4B7VL9; constant regions not specified
B13: HuJS007-52 (antibody, V domains shown)
VH: QVQLQESGPGLVKPSQTLSLTCTVSAYSITSGYYWNWIRQHPGKGLEWIGYIGYDGSNNYNPSLKSRVTISRDTSKNQFSLKLSSVTAADTAVYYCARDYYSGYFDSWGQGTTLTVSS
VL: EIVMTQSPATLSVSPGERATLSCRASQNVGTYVAWYQQKPGQAPRPLIYSTSYRYSGIPARFSGSGSGTEFTLTISSLQSEDFAVYYCHQYDTYPLTFGQGTKLEIK
notes: 4B7 VH2-2 + 4B7VL7; constant regions not specified
B14: HuJS007-84 (antibody, V domains shown)
VH: QVQLQESGPGLVKPSQTLSLTCAVSGYSISSGYYWNWIRQFPGKGLEWMGYIGYDGSNYYNPSLKNRVTMSVDTSKNQFSLKLSSVTAVDTAVYYCARNYYSGYFDSWGQGTTVTVSS
VL: DIQMTQSPSSLSASVGDRVTITCRASQNVGTYVAWYQQKPGKAPKPLIYSTSYRYSGVPSRFSGSGSGTDFTLTISSLQPEDFATYFCHQYDTYPLTFGAGTKLELK
notes: 1A5 VH6 + 4B7VL3; constant regions not specified
B15: HuJS007-72 (antibody, V domains shown)
VH: QVQLQESGPGLVKPSQTLSLTCAVSAYSITSGYYWNWIRQHPGKGLEWIGYIGYDGSNNYNPSLKSRVTISRDTSKNQFSLKLSSVTAADTAVYYCARDYYSGYFDSWGQGTTLTVSS
VL: EIVMTQSPATLSVSPGERATLSCKASQNVGTYVAWYQQKPGQAPRPLIYSTSYRYSGIPARFSGSGSGTEFTLTISSLQSEDFAVYFCHQYDTYPLTFGQGTKLEIK
notes: 4B7 VH2-4 + 4B7VL9; constant regions not specified

This assay has as its target T1, huCTLA-4 ECD (his-tag) (human, UniProt P16410 37-162).
T1 construct: also called HX1 hCTLA4 his; HX1 huCTLA4 his; not shown: his-tag
T1 sequence: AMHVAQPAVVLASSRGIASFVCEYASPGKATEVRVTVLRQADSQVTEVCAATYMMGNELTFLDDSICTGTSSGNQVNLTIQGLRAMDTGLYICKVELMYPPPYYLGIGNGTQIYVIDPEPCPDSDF
The assay can be described thus: ELISA, coated huCTLA-4 his. The method, then:
HX1 hCTLA4 his was diluted with PBS (Hyclone) to 1.0 μg/mL, and the dilution was added to a microplate at 100 μL/well. The plate was let stand in an incubator at 37° C. and coated for 90 min and then washed, and 2% BSA was added to the plate at 200 μL/well. The plate was incubated in an incubator at 37° C. for 90 min and then washed. The humanized anti-CTLA-4 antibodies in Table 4 and the control antibody (ipilimumab) were diluted with a diluent (2% BSA) to 1000 ng/mL. The dilution performed each time was not higher than 10-fold. Then, the humanized antibodies and the control antibody were serially diluted 2.5-fold on a sample dilution plate. All the humanized antibody solutions and the control antibody solution were added to a microplate at 100 μL/well. The plate was incubated in an incubator at 37° C. for 60 min and then washed. An HRP-conjugated goat anti-human antibody IgG (Fc specific) was diluted 5000-fold with 2% BSA, and the dilution was added to the microplate at 100 μL/well. The plate was incubated in an incubator at 37° C. for 60 min and then washed. The color development solution TMB was added at 100 μL/well, during which bubbles were avoided. Color development was allowed at 37° C. for 15 min in the dark and then terminated by adding 2 M hydrochloric acid solution at 100 μL/well, during which bubbles were avoided. Reading (wavelength: 450/620 nm) was done within 10 min using a microplate reader.
(In general: ELISA stands for enzyme-linked immunosorbent assay.)
Consider B1, for which the binding result was “binds”. In the case of B2, the binding result is reported as “binds”. Consider B3, for which the binding result is reported as “binds”. Then B4, with “binds”; and B5, with “binds”; and B6, with “binds”. Then B7, with “binds”. Take B8: the binding result is “binds”. As to B9, the binding result is on record as “binds”. As to B10, the binding result is “binds”. B11: the binding result was “binds”. On to B12, for which the binding result was “binds”.

With B13, the binding result is “binds”. As for B14, the binding result is “binds”. On to B15, for which the binding result is reported as “binds”.
